Substitutions are numbered along the chain they refer to. Names may count otherwise.

In assay [1] the target is T1, recombinant human TfR1 (transferrin receptor protein 1) (human, UniProt P02786 89-760).
T1 construct: Recombinant protein in SPR and ELISA; they were assigned to this molecule; also called hTfR1; huTfR1
The assay is described as follows: ELISA on plate-coated recombinant hTfR1, fluorescent anti-(H+L) IgG-A488 detection, % normalized RFUs. The procedure:
To measure binding of humanized anti-TfR antibodies to TfR1, ELISAs were conducted. High binding, black, flat bottom, 96 well plates (Corning #3925) were first coated with 100 μL/well of recombinant huTfR1 at 1 μg/mL in PBS and incubated at 4° C. overnight. Wells were emptied and residual liquid was removed. Blocking was conducted by adding 200 μL of 1% BSA (w/w) in PBS to each well. Blocking was allowed to proceed for 2 hours at room temperature on a shaker at 30) rpm. After blocking, liquid was removed and wells were washed three times with 300 μL of TBST. Anti-TfR1 antibodies were then added in 0.5% BSA/TBST in triplicate in an 8 point serial dilution (dilution range 5 μg/mL-5 ng/mL). A positive control and isotype controls were also included on the ELISA plate. The plate was incubated at room temperature on an orbital shaker for 60 minutes at 300 rpm, and the plate was washed three times with 300 μL of TBST. Anti-(H+L)IgG-A488 (1:500) (Invitrogen #A11013) was diluted in 0.5% BSA in TBST, and 100 μL was added to each well. The plate was then allowed to incubate at room temperature for 60 minutes at 300 rpm on orbital shaker. The liquid was removed and the plate was washed four times with 300 μL of TBST. Absorbance was then measured at 495 nm excitation and […] (with a 15 nm bandwidth) on a plate reader. Data was recorded and analyzed for $EC50$. […] ELISA measurements were conducted using cynomolgus monkey (Macaca fascicularis) TfR1 (cTfR1) according to the same protocol described above for hTfR1, and results are shown in FIGS. 9B, 9D, and 9F.
A general note: An ELISA detects its analyte on a solid surface through an enzyme-linked reagent.

The target in assay [2] is T1, recombinant human TfR1 (transferrin …). The assay is described as follows: Table 14, unconjugated Fab, d0; method not named (values equal ELISA row of Table 13).
The target of assay [3] is T2, recombinant cynomolgus monkey (Macaca fascicularis) TfR1 (cynomolgus monkey (Macaca fascicularis), UniProt Q5RDH6 87-760 (Pongo abelii entry), limits assumed).
T2 construct: Recombinant protein; also called cTfR1; cyTfR1
T2 chain: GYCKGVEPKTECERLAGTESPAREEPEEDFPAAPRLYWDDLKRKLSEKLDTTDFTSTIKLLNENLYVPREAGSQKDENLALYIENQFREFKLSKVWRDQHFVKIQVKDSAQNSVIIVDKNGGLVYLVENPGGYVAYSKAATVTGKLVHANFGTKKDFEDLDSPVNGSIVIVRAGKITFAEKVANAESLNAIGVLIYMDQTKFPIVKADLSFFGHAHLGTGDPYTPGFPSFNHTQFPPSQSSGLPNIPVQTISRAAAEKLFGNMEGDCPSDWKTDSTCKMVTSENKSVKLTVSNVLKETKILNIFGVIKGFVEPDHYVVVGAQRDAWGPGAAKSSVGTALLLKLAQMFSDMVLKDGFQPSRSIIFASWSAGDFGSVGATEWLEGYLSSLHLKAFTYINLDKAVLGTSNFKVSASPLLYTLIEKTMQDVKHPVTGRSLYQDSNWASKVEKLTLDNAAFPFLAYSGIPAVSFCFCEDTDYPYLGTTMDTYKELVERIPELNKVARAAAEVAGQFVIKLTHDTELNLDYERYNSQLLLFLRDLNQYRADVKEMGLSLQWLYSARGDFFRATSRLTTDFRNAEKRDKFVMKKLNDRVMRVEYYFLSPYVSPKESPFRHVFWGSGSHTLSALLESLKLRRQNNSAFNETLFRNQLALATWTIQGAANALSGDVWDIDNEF
The assay is described as above.

Assay [4] deals with T1, recombinant human TfR1 (transferrin …). Put plainly: Biacore, d0; TfR1 species not stated. (SPR reads the build-up and loss of mass on a sensor chip optically.)
The target is the same in assay [5]. The assay is described as follows: Table 14, unconjugated Fab, d9 (after 9 days at 40 C); method not named.
Assay [6] concerns the target T2, recombinant cynomolgus monkey (Macaca …). The assay is described as above.
Assay [7] shares this target. The assay is described as follows: ELISA on plate-coated recombinant cTfR1, fluorescent anti-(H+L) IgG-A488 detection, % normalized RFUs. The procedure:
To measure binding of humanized anti-TfR antibodies to TfR1, ELISAs were conducted. High binding, black, flat bottom, 96 well plates (Corning #3925) were first coated with 100 μL/well of recombinant huTfR1 at 1 μg/mL in PBS and incubated at 4° C. overnight. Wells were emptied and residual liquid was removed. Blocking was conducted by adding 200 μL of 1% BSA (w/w) in PBS to each well. Blocking was allowed to proceed for 2 hours at room temperature on a shaker at 30) rpm. After blocking, liquid was removed and wells were washed three times with 300 μL of TBST. Anti-TfR1 antibodies were then added in 0.5% BSA/TBST in triplicate in an 8 point serial dilution (dilution range 5 μg/mL-5 ng/mL). A positive control and isotype controls were also included on the ELISA plate. The plate was incubated at room temperature on an orbital shaker for 60 minutes at 300 rpm, and the plate was washed three times with 300 μL of TBST. Anti-(H+L)IgG-A488 (1:500) (Invitrogen #A11013) was diluted in 0.5% BSA in TBST, and 100 μL was added to each well. The plate was then allowed to incubate at room temperature for 60 minutes at 300 rpm on orbital shaker. The liquid was removed and the plate was washed four times with 300 μL of TBST. Absorbance was then measured at 495 nm excitation and […] (with a 15 nm bandwidth) on a plate reader. Data was recorded and analyzed for $EC50$. […]

For assay [8] the target is unchanged. Put plainly: ELISA on cTfR1, unconjugated Fab, % normalized RFUs.
The target of assay [9] is T1, recombinant human TfR1 (transferrin …). Put plainly: ELISA, recombinant TfR1 coated, unconjugated Fab (row 'Fab binding affinity ELISA').
For assay [10], the target named is T2, recombinant cynomolgus monkey (Macaca …). Described as above.
Assay [11] has as its target T1, recombinant human TfR1 (transferrin …). The assay is described as follows: ELISA on hTfR1, unconjugated Fab, % normalized RFUs.
The target is the same in assay [12]. Put plainly: Biacore, d25; TfR1 species not stated.
For assay [13] the target is unchanged. The assay is described as follows: kinetic analysis (Biacore), Table 7; TfR1 species not stated.
Assay [14] shares this target. Put plainly: Table 14, Fab-ASO300 conjugate; method not named.
Assay [15] addresses T2, recombinant cynomolgus monkey (Macaca …). The assay is described as follows: Table 14, Fab-ASO300 conjugate; method not named.
Assay [16] shares this target. The assay is described as follows: ELISA on cTfR1, Fab conjugated to DMPK-targeting oligonucleotide, % normalized RFUs.
In assay [17] the target is T1, recombinant human TfR1 (transferrin …). Put plainly: ELISA on hTfR1, Fab conjugated to DMPK-targeting oligonucleotide, % normalized RFUs.
The target is the same in assay [18]. Put plainly: ELISA, recombinant TfR1 coated, Fab-ASO300 conjugate (row 'Conjugate binding affinity ELISA').
The target in assay [19] is T2, recombinant cynomolgus monkey (Macaca …). The assay is described as above.

B1: humanized anti-TfR Fab 3A4 VH3 (N54T)/Vκ4 (Fab, V domains shown)
VH: EVQLVQSGSELKKPGASVKVSCTASGFNIKDDYMYWVRQPPGKGLEWIGWIDPETGDTEYASKFQDRVTVTADTSTNTAYMELSSLRSEDTAVYYCTLWLRRGLDYWGQGTLVTVSS
VL: DIVMTQSPLSLPVTPGEPASISCRSSKSLLHSNGYTYLFWFQQRPGQSPRLLIYRMSNLASGVPDRFSGSGSGTDFTLKISRVEAEDVGVYYCMQHLEYPFTFGGGTKVEIKR
notes: also called 3A4 (VH3-N54T/Vk4)
On to B1, for which the EC50 (as a rule, the midpoint of the concentration-response curve) in [1] is 2.3 nM; in assay [7], > 100 nM; in assay [8], > 100 nM; in [9], 2.6 nM; in [10], 156 nM; in assay [11], 2.3 nM. The Binding affinity came out at 2.6 nM in assay [2], 156 nM in [3], 0.4 nM in assay [5] and 128 nM in [6]. Besides, the Kd (in general, the free concentration of one partner at which half of the binding sites on the other are occupied at equilibrium, for simple one-to-one binding) in [4] turned out to be 3.09 nM; in assay [12], 3.01 nM; in assay [13], 3.09 nM. In addition, in assay [13], the koff – broadly, the first-order rate constant of dissociation – amounted to 0.000705 s⁻¹. Besides, in assay [13], the kon (in general, the rate constant with which the complex forms) was 228000 M⁻¹ s⁻¹.

B2: humanized anti-TfR Fab 3A4 VH3 (N54S)/Vκ4 (Fab, V domains shown)
VH: B1 VH with T55S
VL: B1 VL
notes: also called 3A4 (VH3-N54S/Vk4)
For B2, the EC50 in assay [1] is 1.9 nM; in [7], > 100 nM; in assay [8], > 100 nM; in [9], 1.6 nM; in assay [10], 398 nM; in [11], 1.9 nM. Further, the Binding affinity in assay [2] turned out to be 1.6 nM; in assay [3], 398 nM; in assay [5] it was 0.65 nM; in assay [6], 248 nM. In addition, the Kd in assay [4] was 1.34 nM; in assay [12], 1.39 nM; in [13], 1.34 nM.

B3: conjugate of humanized anti-TfR Fab 5H12 VH5 (C33Y)/Vκ4 with DMPK-targeting oligonucleotide ASO300 (Fab, V domains shown)
VH: QVQLVQSGAEVKKPGASVKVSCKASGYSFTDYYINWVRQAPGQGLEWMGWIYPGSGNTRYSERFKGRVTITRDTSASTAYMELSSLRSEDTAVYYCAREDYYPYHGMDYWGQGTLVTVSS
VL: DIVMTQSPDSLAVSLGERATINCRASESVDGYDNSFMHWYQQKPGQPPKLLIFRASNLESGVPDRFSGSGSGTDFTLTISSLQAEDVAVYYCQQSSEDPWTFGQGTKLEIKR
modifications: oligonucleotide ASO300 conjugated to the Fab via linker; residue and chain not stated
Turning to B3, the “DMPK oligo conjugate binding” value in assay [14] and in assay [15] was 13.9 nM throughout. The EC50 came to 2.8 nM in [16], 25.5 nM in assay [17], 23.7 nM in [18] and 3.3 nM in [19].

For the origin of these results see patent US11844843 (DYNE THERAPEUTICS, dated 2023).
